Laboratory results as given in patent US20170015738A1 (H LUNDBECK A S, published 2017).

Assays:
[1] = biological target: T1, tau antigens from human AD brain, S1(p) fraction (human, UniProt P10636 2-758, phosphorylated; sites not listed for this fraction); assay: fluid phase MSD ELISA: inhibition of tau antigen capture
T1 construct: Brain-derived; isoform mix; also called AD-S1(p); AD s1(p)
Method: B: The samples were incubated on MSD plates coated with AD-P3 (1 μg/ml) for 2 hours followed by wash and detection of captured Tau antigens using sulfo tagged anti-total TauG antibodies.

[2] = biological target: T2, pathological hyperphosphorylated tau from human Alzheimer's disease brain, sarkosyl-insoluble P3 fraction (human, UniProt P10636 2-758, hyperphosphorylated; phosphoserine at 396 (other sites not listed)); assay: MSD ELISA on immobilised P3 tau; ratio of binding to AD over healthy control at saturation
T2 construct: Brain-derived mixture of tau isoforms (bands at 54, 64, 69 and 74 kDa); also called AD-P3; AD P3
T2 sequence (P10636 other isoform, or with tags, fused parts or gaps limits assumed): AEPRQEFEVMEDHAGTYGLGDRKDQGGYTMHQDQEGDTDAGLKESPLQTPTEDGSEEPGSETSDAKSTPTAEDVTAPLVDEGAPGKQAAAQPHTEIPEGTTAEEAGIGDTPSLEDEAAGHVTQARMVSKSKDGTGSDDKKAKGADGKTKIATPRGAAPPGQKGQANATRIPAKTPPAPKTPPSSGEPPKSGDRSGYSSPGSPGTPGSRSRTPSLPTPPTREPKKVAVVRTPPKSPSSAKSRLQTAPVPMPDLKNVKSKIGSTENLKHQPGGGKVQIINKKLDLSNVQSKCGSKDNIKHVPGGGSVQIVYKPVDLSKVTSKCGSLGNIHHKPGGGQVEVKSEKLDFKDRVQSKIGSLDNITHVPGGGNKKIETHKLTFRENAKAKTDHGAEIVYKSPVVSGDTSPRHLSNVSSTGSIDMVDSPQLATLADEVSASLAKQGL

T1 sequence (P10636 other isoform, or with tags, fused parts or gaps limits assumed): as above

| IC50 [1] [nM] | AD/ctrl [2] [fold] | Binder |
| --- | --- | --- |
| 503 | – | Antibody D1.2 (antibody, mouse IgG2b, kappa, V domains shown, Mouse monoclonal; also called mD1.2; mouse D1.2) VH: QVQLQQSGAELVRPGASVTLSCKASGNTFTDYEIHWVKQTPVHGLEWIGAIDPETGNTAYNQKFKGKARLTADKSSSTAYMELRSLTSEDSAVYYCTRSRGFDYWGQGTTLTVSS VL: DVMMTQTPLSLPVSLGDQASISCRSSQSLVHSNGNTYLHWHLQKPGQSPKFLIYKVSNRFSGVPDRFSGSGSGTDFTLKISRVEAEDLGVYFCSQSTHVPFTFGSGTKLEIKR |
| – | 3 | IPN002 (antibody, V domains shown) VH: EVHLVESGGALVKPGGSLKLSCAASGFSFSKYGMSWVRQTPDKRLEWVATISSSGSRTYYPDSVKGQFTISRDNAKNTLYLQMSSLKSEDTAMYYCSISWDGAMDYWGQGTSVTVSS VL: DVLMTQTPLSLPVSLGDQASISCKSSQSIVHSNGNTYLEWYLQKPGQSPKLLVYKVSNRFSGVPDRFSGSGSGTDFTLKISRVEAEDLGTYYCFQGSLVPWAFGGGTKLEIK |
| 11 | – | Antibody C10-2 (murine) (antibody, mouse IgG1, kappa, V domains shown, Mouse monoclonal from hybridoma; also called mC10-2; mouse C10-2) VH: QVQLQQSDAELVKPGASVKISCKASGYTFTDRTIHWVKQRPEQGLEWIGYIYPGDGSTKYNENFKGKATLTADKSSSTAYMQLNSLTSEDSAVYFCARRGAMDYWGQGTSVTVSS VL: DVQMIQSPSSLSASLGDIVTMTCQASQGTSINLNWFQQKPGKAPKLLIYGASNLEDGVPSRFSGSRYGTDFTLTISSLEDEDMATYFCLQHTYLPFTFGSGTKLEIKR |
